Results as given in patent US20260374873 (published 2026).

Key:
rat B7-H3 = target: T1, rat B7-H3 (rat, UniProt Q7TPB4); assay: BLI
T1 chain: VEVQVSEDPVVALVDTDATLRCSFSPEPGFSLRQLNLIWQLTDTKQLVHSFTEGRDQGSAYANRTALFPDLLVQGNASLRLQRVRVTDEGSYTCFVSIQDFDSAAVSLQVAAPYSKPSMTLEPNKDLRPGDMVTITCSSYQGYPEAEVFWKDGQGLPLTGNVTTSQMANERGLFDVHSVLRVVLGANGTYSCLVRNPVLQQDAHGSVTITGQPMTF

rat B7-H3 on CHO-S = target: T2, rat B7-H3 on CHO-S (rat, UniProt Q7TPB4); assay: FACS
T2 chain: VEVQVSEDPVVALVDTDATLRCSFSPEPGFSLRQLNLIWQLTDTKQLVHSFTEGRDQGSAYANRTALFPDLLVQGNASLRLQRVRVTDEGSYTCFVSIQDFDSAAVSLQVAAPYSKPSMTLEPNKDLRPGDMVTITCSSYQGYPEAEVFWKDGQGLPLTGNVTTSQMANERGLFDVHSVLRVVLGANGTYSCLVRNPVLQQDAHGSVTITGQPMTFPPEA

human B7-2 = target: T3, human B7-2 (human, UniProt P42081); assay: ELISA
T3 chain: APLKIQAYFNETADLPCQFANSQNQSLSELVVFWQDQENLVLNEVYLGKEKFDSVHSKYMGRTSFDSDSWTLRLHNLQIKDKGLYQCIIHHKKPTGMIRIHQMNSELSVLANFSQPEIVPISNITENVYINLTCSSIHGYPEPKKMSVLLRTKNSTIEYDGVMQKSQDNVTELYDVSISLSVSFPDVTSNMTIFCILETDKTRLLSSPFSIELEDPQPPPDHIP

human B7-H1 = human B7-H1 (human, UniProt Q9NZQ7); assay: ELISA
human B7-H2 = target: T4, human B7-H2 (human, UniProt O75144); assay: ELISA
T4 chain: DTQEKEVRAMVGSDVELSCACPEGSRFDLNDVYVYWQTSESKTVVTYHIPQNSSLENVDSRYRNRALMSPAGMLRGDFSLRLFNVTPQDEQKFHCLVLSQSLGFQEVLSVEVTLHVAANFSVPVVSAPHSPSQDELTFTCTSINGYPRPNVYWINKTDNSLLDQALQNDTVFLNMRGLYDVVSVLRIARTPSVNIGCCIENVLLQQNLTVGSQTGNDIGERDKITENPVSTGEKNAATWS

human B7-H4 = target: T5, human B7-H4 (human, UniProt Q7Z7D3); assay: ELISA
T5 chain: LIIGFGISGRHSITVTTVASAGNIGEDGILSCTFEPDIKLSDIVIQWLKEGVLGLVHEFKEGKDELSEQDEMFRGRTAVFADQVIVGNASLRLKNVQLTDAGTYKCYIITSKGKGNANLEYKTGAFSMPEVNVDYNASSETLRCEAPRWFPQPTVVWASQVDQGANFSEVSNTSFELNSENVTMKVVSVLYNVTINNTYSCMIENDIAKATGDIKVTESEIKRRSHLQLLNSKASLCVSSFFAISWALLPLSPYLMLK

human B7-1 = target: T6, human B7-1 (human, UniProt P33681); assay: ELISA
T6 chain: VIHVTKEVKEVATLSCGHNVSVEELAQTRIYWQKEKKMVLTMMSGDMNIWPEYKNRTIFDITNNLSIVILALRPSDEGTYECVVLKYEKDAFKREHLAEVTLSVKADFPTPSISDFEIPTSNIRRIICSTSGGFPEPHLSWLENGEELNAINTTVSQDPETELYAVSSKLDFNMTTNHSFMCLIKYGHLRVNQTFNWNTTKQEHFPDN

Measured: binding result

Sequence of human B7-H1 (Q9NZQ7 19-238): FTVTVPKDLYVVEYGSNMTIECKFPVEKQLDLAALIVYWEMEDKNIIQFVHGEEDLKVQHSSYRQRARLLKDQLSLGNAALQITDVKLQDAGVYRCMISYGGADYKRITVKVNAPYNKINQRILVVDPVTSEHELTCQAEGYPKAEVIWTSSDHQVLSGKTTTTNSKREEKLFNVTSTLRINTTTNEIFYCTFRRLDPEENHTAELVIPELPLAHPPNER

B1: 2#8890 (antibody, V domains shown)
VH: QVQLQESGPGLVQPSGTLSLTCAVSGGSDSSTNWWTWVRQSPGQGLEWIGEISPIGFTSYSPSLRSRVTISVDKSKTQFSLKLSSVTAADTAVYYCARDRLYFAFWGQGTLVTVSS
VL: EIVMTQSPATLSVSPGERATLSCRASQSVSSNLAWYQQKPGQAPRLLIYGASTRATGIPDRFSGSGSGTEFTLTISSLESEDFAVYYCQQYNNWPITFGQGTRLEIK
no binding: all assays above
